Results taken from publication PMC3185416.
Like-named read-outs stand apart in the source and are kept apart here.

Key:
[1] = biological target: Smad4 MH1dN3 (mouse, UniProt P97471 4-140); experiment: EMSA
[2] = biological target: Smad4 MH1dN10 (mouse, UniProt P97471 11-140); experiment: EMSA
[3] = biological target: Smad4 MH1dN12 (mouse, UniProt P97471 13-140); experiment: EMSA
[4] = biological target: T1, Smad4 MH1dN8 (mouse, UniProt P97471 9-140); experiment: EMSA
[5] = biological target: Smad1 MH1 (UniProt P70340 1-136); experiment: EMSA
[6] = biological target: Smad4 MH1;Smad2dE3 MH1 (mouse;mouse?, UniProt P97471;Q62432-2 1-140;1-153, |del79-108); experiment: EMSA
[7] = biological target: Smad4 MH1;Smad1 MH1 (mouse;mouse?, UniProt P97471;P70340 1-140;1-136, |); experiment: EMSA
[8] = biological target: Smad4 MH1;Smad3 MH1 (mouse;mouse?, UniProt P97471;Q8BUN5 1-140;1-143, |); experiment: EMSA
[9] = biological target: Smad3 MH1 K33R (UniProt Q8BUN5 1-143, K33R); experiment: EMSA
[10] = biological target: Smad3 MH1 S100K (UniProt Q8BUN5 1-143, S99K); experiment: EMSA
[11] = biological target: Smad3 MH1 99HSHH102/HKN (UniProt Q8BUN5 1-97+=HKN+102-143, internal_change); experiment: EMSA
[12] = biological target: Smad3 MH1 (UniProt Q8BUN5 1-143); experiment: EMSA
[13] = biological target: Smad2dE3 MH1 (UniProt Q62432-2 1-153, del79-108); experiment: EMSA
[14] = biological target: T2, Smad4 MH1 (mouse, UniProt P97471 1-140); experiment: EMSA
[15] = biological target: Smad4 MH1 105HKN107/HSHH (mouse, UniProt P97471 1-104+=HSHH+108-140, internal_change); experiment: EMSA
[16] = biological target: Smad4 MH1 K106S (mouse, UniProt P97471 1-140, K106S); experiment: EMSA
[17] = biological target: Smad4 MH1 AG/SH (mouse, UniProt P97471 1-140, A85S;G86H); experiment: EMSA
[18] = biological target: Smad4 MH1 R38K (mouse, UniProt P97471 1-140, R38K); experiment: EMSA
[19] = biological target: T2, Smad4 MH1; experiment: EMSA; remark: listed apart in the source
[20] = biological target: T2, Smad4 MH1; experiment: EMSA; remark: listed apart in the source
[21] = biological target: T1, Smad4 MH1dN8; experiment: crystal structure

Measured: binding result

Chain of Smad1 MH1 (P70340 1-136): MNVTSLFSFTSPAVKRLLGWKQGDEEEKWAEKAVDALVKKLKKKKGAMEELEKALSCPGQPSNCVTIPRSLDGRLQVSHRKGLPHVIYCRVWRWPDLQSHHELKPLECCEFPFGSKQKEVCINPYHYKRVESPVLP

B1: palindromic SBE (EMSA) (dsDNA)
DNA 1: TCAGTCTAGACATAC
DNA 2: GTATGTCTAGACTGA
not listed: [19] | [20] | [21]
binds: all other assays above

B2: OPN1 promoter element (dsDNA)
DNA 1: TGGAGACTGTCTGGA
DNA 2: TCCAGACAGTCTCCA
binds: [19]

B3: palindromic SBE 16-bp (crystal) (dsDNA)
DNA 1: TGCAGTCTAGACTGCA
DNA 2: TGCAGTCTAGACTGCA
binds: [20] | [21]

B4: JunB promoter element (dsDNA)
DNA 1: GACAGTCTGTCTGCC
DNA 2: GGCAGACAGACTGTC
binds: [19]
